Measured values published in patent US20110166063A1 (priority 2008, published 2011).
Values joined by “and” are separate entries in the source; they are usually repeats but may differ in a detail not shown here. Equal values may be shown once.

Experiments:
[1] = Pharmacokinetic study of V681 (V13AD) conjugates, single IV dose in rats; assay type: in vivo, Sprague-Dawley rats; details: 1.0 mg/kg equivalent protein mass IV
Text: The weight range of the animals was 311-346 grams. All animals were food fasted overnight. […] The predose sample was collected from the JVC.
Following the last collection point, the animals were euthanized.

rat red blood cells = experiment: Hemolysis assay, V681(V13AD) series; assay type: cell-based; details: 37° C., relative to 0.25% Triton X-100
Experimental: Hemolysis assay. Approximately 10 mL of blood was drawn from one adult rat into Na Heparin tube and kept in ice until use. Red blood cells were washed three times with 10 mL of cold DPBS ((−) CaCl2 and (−) MgCl2) and collected by sequential centrifugation at 3,000 g for 5 min at 4° C. Pellets of red blood cells were resuspended with DPBS ((−) CaCl2 and (−) MgCl2) and the total volume was brought up to initial volume of blood drawn. One mL of resuspended red blood cells was resuspended with 49 mL of DPBS ((−) CaCl2 and (−) MgCl2). Incubation mixture was prepared by 400 fold dilution of stock solution of test compounds with final volume of 800 μl. Final concentration of test compounds was equimolar to that of respective unconjugated compounds. Hemolysis incubation was done at 37° C. with mild agitation.
For releasable conjugates, test compounds were preincubated in 1×PBS at 37° C. prior to hemolysis assay. Incubation mixture was centrifuged at 3,000 g for 5 min at 4° C., and the absorbance at 550 nm was read from supernatant.

human μ opioid receptor = human μ opioid receptor (Homo sapiens, UniProt P35372); experiment: Radioligand competition binding assay, biphalin series, μ opioid receptor
human μ opioid receptor, sequence (P35372 whole entry): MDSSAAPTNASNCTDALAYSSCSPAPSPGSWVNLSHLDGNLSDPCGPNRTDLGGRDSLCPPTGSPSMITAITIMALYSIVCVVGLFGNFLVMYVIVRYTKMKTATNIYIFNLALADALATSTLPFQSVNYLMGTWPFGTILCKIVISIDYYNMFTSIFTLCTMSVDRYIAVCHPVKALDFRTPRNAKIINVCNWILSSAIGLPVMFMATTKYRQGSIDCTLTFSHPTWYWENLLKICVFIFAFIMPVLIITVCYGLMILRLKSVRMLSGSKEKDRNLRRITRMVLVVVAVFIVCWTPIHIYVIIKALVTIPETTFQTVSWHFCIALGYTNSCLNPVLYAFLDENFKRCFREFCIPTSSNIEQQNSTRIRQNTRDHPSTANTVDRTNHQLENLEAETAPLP
Experimental: (§1) Competition binding experiments were conducted by incubating membrane protein to equilibrium in triplicate in the presence of a fixed concentration of radioligand and increasing concentrations (0.1 nM to 10 μM) of test compound in 100 μL final volume. The radioligands used were specific for each receptor type, and the assay conditions are described in Table BIP6.3. Following incubations, the membranes were rapidly filtered through GF/B filter plate (presoaked with 0.5% polyethyleneimine), washed four times with cold 50 mM Tris-HCl, pH 7.5, and the bound radioactivity was then measured. Non-specific binding was measured in the presence of excess naloxone (100 μM); this value was subtracted from the total binding to yield the specific binding at each test concentration.
(§2) The test compounds were stored under acidic condition to stabilize the PEG conjugation.
(§3) Ki (affinity of test compound) was obtained using the Cheng Prusoff correction using experimental Kd (affinity of radioligand) values that were previously determined under these assay conditions.

human δ opioid receptor = human δ opioid receptor (Homo sapiens, UniProt P41143); experiment: Radioligand competition binding assay, biphalin series, δ opioid receptor
human δ opioid receptor, sequence (P41143 whole entry): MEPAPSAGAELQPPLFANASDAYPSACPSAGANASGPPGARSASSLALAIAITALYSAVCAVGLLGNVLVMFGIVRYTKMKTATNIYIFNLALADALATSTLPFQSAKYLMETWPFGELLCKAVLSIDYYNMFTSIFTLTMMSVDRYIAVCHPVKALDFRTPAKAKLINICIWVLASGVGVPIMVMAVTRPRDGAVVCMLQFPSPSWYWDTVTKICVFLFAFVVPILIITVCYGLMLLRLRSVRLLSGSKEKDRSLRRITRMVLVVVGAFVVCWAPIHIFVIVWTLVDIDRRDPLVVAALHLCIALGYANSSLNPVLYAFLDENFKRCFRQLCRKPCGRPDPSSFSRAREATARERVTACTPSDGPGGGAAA
Experimental: as §1, §2, §3

[2] = OGF release rate and stability of OGF; assay type: physicochemical; details: 160 hours at 37° C., pH 7.5 and 16 hours at 37° C., pH 10.0
[3] = assay type: physicochemical; details: 72 hour incubation in assay buffer, pH 7.5 at 37° C.
[4] = due to rapid proteolysis and glomerular filtration; cited from earlier work
[5] = pH 5
[6] = Pre-incubated in assay buffer pH 7.5 at 37° C. (72 h biphalin and di-CAC; 20 h di-C2 and di-SBC)

With “[mono]-[mPEG2-20K]-[V681(V13AD)] [NHS-20K-V681 (V13AD)]” the “AUCINF” value [1] was 53.0 ± 1.1 µg·h/mL, the “CL” value [1] was 0.315 ± 0.0065 mL/min/kg and the “Cmax” value [1] was 5210 ± 211 ng/mL. For the same compound, the “MRT” value [1] was 7.6 ± 1.1 h, the “T1/2” value [1] was 5.8 ± 1.0 h and the “Vss” value [1] was 0.143 ± 0.0237 L/kg. The “mean AUC as multiple of V681 (V13AD)” value [1] was 24 times and the hemolytic effects (rat red blood cells) was “almost eliminated”.

For “(SPA-2K)2-biphalin [Di-mPEG-SPA-2K-biphalin]”, the “inhibition of specific binding at the highest test concentration” value (human μ opioid receptor; 10 μM) was “no measurable inhibition” and the “inhibition of specific binding at the highest test concentration” value (human δ opioid receptor; 10 μM) was “no measurable inhibition”.

With “(SBC-30K)2-biphalin [Di-mPEG-SBC-30K-biphalin]” the “Ki (nM), δ Opioid Receptor” value (human δ opioid receptor; [6]) was “not obtained”.

In the case of `CSCC[C@H](NC(=O)[C@H](Cc1ccccc1)NC(=O)CNC(=O)CNC(=O)[C@@H](N)Cc1ccc(O)cc1)C(=O)O` [OGF, Opioid Growth Factor], the “stability of the peptide following pre-incubation” value [2] is reported as “remained stable”.

For `C[C@@H](NC(=O)[C@@H](N)Cc1ccc(O)cc1)C(=O)NCC(=O)N[C@@H](Cc1ccccc1)C(=O)NNC(=O)[C@H](Cc1ccccc1)NC(=O)CNC(=O)[C@@H](C)NC(=O)[C@@H](N)Cc1ccc(O)cc1` [Biphalin, reference compound], the Ki (human μ opioid receptor; [6]) was 3.1 nM, the Ki (human μ opioid receptor; sample diluted on the day of the assay (unreleased)) was 3.4 nM and 4.7 nM and the “stability of the peptide following incubation” value [3] was “remained stable”.

For “GHRH: growth hormone releasing hormone, stimulates growth hormone secretion from the anterior pituitary gland”, the half-life [4] is listed as 0.167 to 0.333 h.

For “mono-mPEG-SBC-30K-ziconotide [SBC-ziconotide conjugate]”, the “stability of the conjugate” value [5] was “very unstable”.

In the case of “[mono]-[mPEG-SMB-30K]-[V681(V13AD)] [SMB-30K-V681 (V13AD)]”, the “AUCINF” value [1] is reported as 158 ± 43 µg·h/mL, the “CL” value [1] is reported as 0.11 ± 0.0267 mL/min/kg and the “Cmax” value [1] is reported as 4380 ± 505 ng/mL. The “MRT” value [1] was 38.3 ± 18.2 h, the “T1/2” value [1] was 26.6 ± 12.5 h and the “Vss” value [1] was 0.235 ± 0.05 L/kg. For the same compound, the “mean AUC as multiple of V681 (V13AD)” value [1] was 123 times and the hemolytic effects (rat red blood cells) was “almost eliminated”.
